{
  "source": "paper PMC3553976",
  "about": "(Nucleic Acids Research, 2012)",
  "binders": {"B1": {"name": "U2AF65^UHM, C-terminal U2AF homology motif domain of U2AF65 (residues 372–475) (domain or fragment)", "chain": "GHPTEVLCLMNMVLPEELLDDEEYEEIVEDVRDECSKYGLVKSIEIPRPVDGVEVPGCGKIFVEFTSVFDCQKAMQGLTGRKFANRVVVTKYCDPDSYHRRDFW"}},
  "key": {"[1]": {"biological_target": "B1", "assay": "ITC"}, "[2]": {"biological_target": "T1, U2AF65^RRM123 (residues 147–475) (human, UniProt P26368 147-475)", "assay": "native gel or EMSA"}, "SF1^NTD (residues 1–145) [3]": {"biological_target": "T2, SF1^NTD (residues 1–145) (human, UniProt Q15637 1-145)", "assay": "ITC"}, "SF1^HH (residues 27–145)": {"biological_target": "T3, SF1^HH (residues 27–145) (human, UniProt Q15637 27-145)", "T3 sequence": "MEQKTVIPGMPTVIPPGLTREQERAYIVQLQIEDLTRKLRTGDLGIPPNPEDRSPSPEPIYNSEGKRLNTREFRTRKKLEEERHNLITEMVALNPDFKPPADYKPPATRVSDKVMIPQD", "assay": "ITC"}, "SF1^NTD (residues 1–145) [4]": {"biological_target": "T2, SF1^NTD (residues 1–145)", "assay": "ITC", "remark": "listed apart in the source"}, "[5]": {"biological_target": "T1, U2AF65^RRM123 (residues 147–475)", "assay": "ITC"}},
  "note": "Where two headings read alike, the source gives them in different places.",
  "data": [
    {"binder": "MATGANATPLDFPSKKRKRSRWNQD (peptide, UniProt Q15637 1-25, looked up)", "note": "[SF1^ULM (residues 1–25)]", "values": [
      {"measurement": "Kd", "setting": "[1]", "value": "127 ± 48", "unit": "nM"}
    ]},
    {"binder": "His6-tagged SF1^2-320 (domain or fragment, human, UniProt Q15637 2-320, looked up) ATGANATPLDFPSKKRKRSRWNQDTMEQKTVIPGMPTVIPPGLTREQERAYIVQLQIEDLTRKLRTGDLGIPPNPEDRSPSPEPIYNSEGKRLNTREFRTRKKLEEERHNLITEMVALNPDFKPPADYKPPATRVSDKVMIPQDEYPEINFVGLLIGPRGNTLKNIEKECNAKIMIRGKGSVKEGKVGRKDGQMLPGEDEPLHALVTANTMENVKKAVEQIRNILKQGIETPEDQNDLRKMQLRELARLNGTLREDDNRILRPWQSSETRSITNTTVCTKCGGAGHIASDCKFQRPGDPQSAQDKARMDKEYLSLMAEL", "values": [
      {"measurement": "binding result", "setting": "[2]", "value": "binds"}
    ]},
    {"binder": "SF1-Δα2, SF1^2-320 with helix α2 deleted (Δ96–128) (domain or fragment, human) ATGANATPLDFPSKKRKRSRWNQDTMEQKTVIPGMPTVIPPGLTREQERAYIVQLQIEDLTRKLRTGDLGIPPNPEDRSPSPEPIYNSEGKRLNGTYKPPATRVSDKVMIPQDEYPEINFVGLLIGPRGNTLKNIEKECNAKIMIRGKGSVKEGKVGRKDGQMLPGEDEPLHALVTANTMENVKKAVEQIRNILKQGIETPEDQNDLRKMQLRELARLNGTLREDDNRILRPWQSSETRSITNTTVCTKCGGAGHIASDCKFQRPGDPQSAQDKARMDKEYLSLMAEL", "values": [
      {"measurement": "binding result", "setting": "[2]", "value": "binds"}
    ]},
    {"binder": "SF1^2-320 with helix α1 deleted (Δ35–68) (domain or fragment, human) ATGANATPLDFPSKKRKRSRWNQDTMEQKTVIPGTDLGIPPNPEDRSPSPEPIYNSEGKRLNTREFRTRKKLEEERHNLITEMVALNPDFKPPADYKPPATRVSDKVMIPQDEYPEINFVGLLIGPRGNTLKNIEKECNAKIMIRGKGSVKEGKVGRKDGQMLPGEDEPLHALVTANTMENVKKAVEQIRNILKQGIETPEDQNDLRKMQLRELARLNGTLREDDNRILRPWQSSETRSITNTTVCTKCGGAGHIASDCKFQRPGDPQSAQDKARMDKEYLSLMAEL", "values": [
      {"measurement": "binding result", "setting": "[2]", "value": "binds"}
    ]},
    {"binder": "SF1^2-320 with the α1–α2 linker deleted (Δ75–90) (domain or fragment, human) ATGANATPLDFPSKKRKRSRWNQDTMEQKTVIPGMPTVIPPGLTREQERAYIVQLQIEDLTRKLRTGDLGIPPGTGKRLNTREFRTRKKLEEERHNLITEMVALNPDFKPPADYKPPATRVSDKVMIPQDEYPEINFVGLLIGPRGNTLKNIEKECNAKIMIRGKGSVKEGKVGRKDGQMLPGEDEPLHALVTANTMENVKKAVEQIRNILKQGIETPEDQNDLRKMQLRELARLNGTLREDDNRILRPWQSSETRSITNTTVCTKCGGAGHIASDCKFQRPGDPQSAQDKARMDKEYLSLMAEL", "values": [
      {"measurement": "binding result", "setting": "[2]", "value": "binds"}
    ]},
    {"binder": "B1", "values": [
      {"measurement": "Kd", "setting": "SF1^NTD (residues 1–145) [3]", "value": 85, "unit": "nM"},
      {"measurement": "Kd", "setting": "SF1^HH (residues 27–145)", "value": "> 100", "unit": "µM"},
      {"measurement": "Kd", "setting": "SF1^NTD (residues 1–145) [4]", "value": "84 ± 23", "unit": "nM"}
    ]},
    {"binder": "SF1 (residues 1–260) (domain or fragment, human, UniProt Q15637 1-260, looked up) MATGANATPLDFPSKKRKRSRWNQDTMEQKTVIPGMPTVIPPGLTREQERAYIVQLQIEDLTRKLRTGDLGIPPNPEDRSPSPEPIYNSEGKRLNTREFRTRKKLEEERHNLITEMVALNPDFKPPADYKPPATRVSDKVMIPQDEYPEINFVGLLIGPRGNTLKNIEKECNAKIMIRGKGSVKEGKVGRKDGQMLPGEDEPLHALVTANTMENVKKAVEQIRNILKQGIETPEDQNDLRKMQLRELARLNGTLREDDNR", "values": [
      {"measurement": "Kd", "setting": "[5]", "value": "114 ± 23", "unit": "nM"}
    ]},
    {"binder": "pSF1, phosphorylated SF1 (residues 1–260) (domain or fragment, phosphoserine at 80 and 82) MATGANATPLDFPSKKRKRSRWNQDTMEQKTVIPGMPTVIPPGLTREQERAYIVQLQIEDLTRKLRTGDLGIPPNPEDRSPSPEPIYNSEGKRLNTREFRTRKKLEEERHNLITEMVALNPDFKPPADYKPPATRVSDKVMIPQDEYPEINFVGLLIGPRGNTLKNIEKECNAKIMIRGKGSVKEGKVGRKDGQMLPGEDEPLHALVTANTMENVKKAVEQIRNILKQGIETPEDQNDLRKMQLRELARLNGTLREDDNR", "values": [
      {"measurement": "Kd", "setting": "[5]", "value": "96 ± 32", "unit": "nM"}
    ]}
  ]
}
